Data on two molecules can be found in patent US9200252B2, “Compositions for inducing differentiation into retinal cells from retinal progenitor cells or inducing proliferation of retinal cells comprising Wnt signaling pathway activators” (SNU R&DB Foundation, priority 2009, dated 2015).

Common to all, as to type: cell-based, human
Data set [1] relates to hESC-derived retinal progenitor cells. Put plainly: Differentiation into photoreceptor cells with Wnt3a or its inhibitor Dkk-1, without Shh and retinoic acid; immunofluorescent staining on Day 29. The method, then: In order to examine the function of the Wnt signaling pathway activator on differentiation from hESCs into retinal cells, particularly photoreceptor cells, cells were cultured in the presence of a Wnt signaling pathway antagonist. The Wnt/Frizzled signaling pathway inhibitor Dkk-1 (R&D Systems, Minneapolis, Minn., USA) was added at a concentration of 10 ng/ml, 100 ng/ml or 1 μg/ml on day 13, followed by culturing the cells for an additional 16 days. While the antagonist concentrations were maintained uniformly over the culture time period, the Wnt signaling pathway activator was assayed for activity. Dkk-1 was dissolved in 0.1% bovine serum albumin (BSA, Sigma-Aldrich) in PBS before use.
According to a protocol for differentiation into retinal cells, Wnt3a and Dkk-1 were added on Day 13 at the following concentrations: 50 ng/ml Wnt3a (group I), free of both Wnt3a and Dkk-1 (group II), 10 ng/ml Dkk-1 (group III), 100 ng/ml Dkk-1 (group IV), and […] Dkk-1 (group V). In each medium, the cells were cultured to Day 29. In this experiment, none of the other major differentiation factors Shh and RA were used.
On Day 29, the cells which had been cultured on poly-D-lysine/laminin-coated, 8-well slides (BD Biosciences) under the conditions of Wnt3a and Dkk-1 (groups I-V) were fixed with 4% paraformaldehyde (Sigma-Aldrich), after which non-specific reactions were blocked with PBS containing 3% BSA (Jackson Immunoresearch Laboratory, Bar Harbor, Me., USA) and 0.25% Triton X-100 (Sigma-Aldrich).
(§1) After being blocked for 90 min, the slides in each differentiation step were incubated overnight at 4° C. with the following antibodies specific for cells of each differentiation step: rabbit-Blue-opsin (1:500, Chemicon), sheep-Chx10 (1:100, Chemicon), rabbit-Crx (1:200, Santa Cruz Biotechnology, Santa Cruz, Calif., USA), rabbit-GFAP (1:200, Invitrogen), mouse-human specific mitochondria (1:50, Chemicon), rabbit-human specific mitochondria (1:200, Chemicon), mouse-Islet1 (1:10, Developmental Studies Hydroma Bank, DSHB; Iowa City, Iowa, USA), mouse-Ki67 (1:100, Vector Laboratories, Peterborough, England), mouse-Mitf (1:1,000, abcam, Cambridge, Mass., USA), mouse-nestin (1:250, BD Sciences), rabbit-neurofilament-200 (1:1,000, Sigma-Aldrich), rabbit-Otx2 (1:100, abcam), rabbit-Pax2 (1:250, abcam), mouse-Pax6 (1:2, DSHB), mouse-peripherin2 (1:500, GenScript, Piscataway, N.J., USA), rabbit-Rax (1:250, abcam), rabbit-recoverin (1:1,000, Chemicon), retinal pigment epithelium 65 (RPE65, 1:100, Chemicon), rabbit-rhodopsin (1:500, Sigma-Aldrich), mouse-rhodopsin (1:500, Ret-P1, Lab Vision, Fremont, Calif., USA), mouse-rhodopsin (1:2,000, Ret-P1, Sigma-Aldrich), mouse-rom1 (1:50, ABR-Affinity Bioreagents, Golden, Colo., USA), rabbit-PDE6 beta (1:100, abcam), rabbit-phosducin (1:500, Santa Cruz Biotechnology), mouse-PKC-alpha (1:500, Sigma-Aldrich), mouse-Prox1 (1:2,000, Chemicon), mouse-Sox2 (1:250, R&D Systems), rabbit-synaptophysin (1:2,000, Santa Cruz Biotechnology), and rabbit-ZO-1 (1:100, Zymed-Invitrogen).
Before use, these antibodies were diluted in a PBS solution containing 1% BSA and 0.25% Triton X-100. The cells were washed three times for 5 min with PBS and incubated at room temperature for 2 hrs with species-specific secondary antibody conjugated with Cy3 (1:800, Jackson Immunoresearch Laboratory) or Alexa488 (1:500, Invitrogen). A standard material suitable for the primary and the secondary antibody was used to examine non-specific staining or interaction between the antibodies. Afterwards, the cells were washed three times for 5 min with PBS, counterstained with DAPI (4,6-diamidino-2 phenylindole) and mounted in Vectashield (Vector Laboratories), followed by visualization under an epifluorescence microscope (Nikon Eclipse, E800, Tokyo, Japan) and a confocal microscope (Leica, Leica Microsystems Inc, Bannockburn, Ill., USA or Zeiss LSM510, Carl Zeiss, Inc, Thornwood, N.Y., USA). […]

For data set [2] the test system is unchanged. Put plainly: Expression levels of retinal cell markers before and after Wnt3a addition (retinal progenitor cells into neural retinal progenitor cells). The settings on record: on Day 18; Wnt3a 50 ng/ml for 5 days from Day 13. The method, then:
To differentiate the retinal progenitor cells generated in Example 3 into neural retinal progenitor cells, Dkk-1 supply was quit on day 3 after induction and a culture medium containing a combination of noggin, IGF-1, FGF2 and Wnt3a was supplied for 5 days (FIG. 1). The culture medium was composed as follows: [DMEM/F12 (Invitrogen), 1 mM L-glutamine (Invitrogen), 0.1 mM nonessential amino acids (Invitrogen), 0.1 mM mercaptoethanol (Sigma-Aldrich), 1% B27 supplement (Invitrogen), 1% N2 supplement (Invitrogen), 10 ng/ml noggin, 10 ng/ml IGF-1, 5 ng/ml FGF2, and 50 ng/ml recombinant Wnt3a (R&D Systems)].
The eye field precursors (floating aggregates) were cultured in 8-well poly-D-lysine/laminin-coated slides (BD Biosciences, Bedford, Mass.) under the same conditions that were used for differentiation into the retinal progenitor cells, the neural retinal progenitor cells, the photoreceptor cell precursors and the photoreceptor cells. The cells completely cultured in each step were fixed with 4% paraformaldehyde (Sigma-Aldrich), after which non-specific reactions were blocked with PBS containing 3% BSA (Jackson Immunoresearch Laboratory, Bar Harbor, Me., USA) and 0.25% Triton X-100 (Sigma-Aldrich).
as §1
Before use, these antibodies were diluted in a PBS solution containing 1% BSA and 0.25% Triton X-100. The cells cultured on the slides in each step were washed three times for 5 min with PBS and incubated at room temperature for 2 hrs with species-specific secondary antibody conjugated with Cy3 (1:800, Jackson Immunoresearch Laboratory) or Alexa488 (1:500, Invitrogen). A standard material suitable for the primary and the secondary antibody was used to examine non-specific staining or interaction between the antibodies. Afterwards, the cells were washed three times for 5 min with PBS, counterstained with DAPI (4,6-diamidino-2 phenylindole) and mounted in Vectashield (Vector Laboratories), followed by visualization under an epifluorescence microscope (Nikon Eclipse, E800, Tokyo, Japan) and a confocal microscope (Leica, Leica Microsystems Inc, Bannockburn, Ill., USA or Zeiss LSM510, Carl Zeiss, Inc, Thornwood, N.Y., USA).
500 cells were counted from 20 microscopic fields randomly selected at 200 magnification and evaluated for positive responses to each antibody. Positive responses to antibodies were determined after at least three evaluations. […]

The test system is the same in data set [3]. The description is as above.
Setting [4] is: Wnt3a 50 ng/ml (Group I), from Day 13 to Day 29, no Shh, no RA.
The mark [5] stands for this setting: Dkk-1 10 ng/ml (Group III), from Day 13 to Day 29, no Wnt3a, Shh, RA.
Setting [6] is: Dkk-1 10 ng/ml, 100 ng/ml, 1 μg/ml.
The mark [7] stands for this setting: Dkk-1 100 ng/ml (Group IV), from Day 13 to Day 29, no Wnt3a, Shh, RA.
Where [8] appears, read: Dkk-1 1 μg/ml (Group V), from Day 13 to Day 29, no Wnt3a, Shh, RA.

Where “and” joins values, the source holds several entries; their conditions need not be identical. Equal values may be shown once.

B1: Wnt3a: recombinant Wnt3a (R&D Systems), Wnt signaling pathway activator (protein, UniProt P56704 19-352, looked up)
Protein Wnt-3a: SYPIWWSLAVGPQYSSLGSQPILCASIPGLVPKQLRFCRNYVEIMPSVAEGIKIGIQECQHQFRGRRWNCTTVHDSLAIFGPVLDKATRESAFVHAIASAGVAFAVTRSCAEGTAAICGCSSRHQGSPGKGWKWGGCSEDIEFGGMVSREFADARENRPDARSAMNRHNNEAGRQAIASHMHLKCKCHGLSGSCEVKTCWWSQPDFRAIGDFLKDKYDSASEMVVEKHRESRGWVETLRPRYTYFKVPTERDLVYYEASPNFCEPNPETGSFGTRDRTCNVSSHGIDGCDLLCCGRGHNARAERRREKCRCVFHWCCYVSCQECTRVYDVHTCK
As to B1, in data set [1] (setting [4]), the “Positive rate of Crx” value was 32.5 (±0.3) %, the “Positive rate of Pax6” value is reported as 82.1 (±4.0) %, the “Positive rate of peripherin2” value is on record as 21.5 (±0.3) % and the “Positive rate of recoverin” value is 72.3 (±0.8) %. Besides, in data set [1] (setting [4]), the “Positive rate of rhodopsin” value is on record as 73.8 (±0.9) %. Further, in data set [2], the “Expression level (positive rate) of Chx10 after Wnt3a addition” value is reported as 64.5 (±1.6) %; the “Expression level (positive rate) of Crx after Wnt3a addition” value was 80.1% and 80.1 (±0.2) %; the “Expression level (positive rate) of Ki67 after Wnt3a addition” value is 31.5 (±0.5) %; the “Expression level (positive rate) of Mitf after Wnt3a addition” value was 2.7 (±1.0) %. Further, in data set [2], the “Expression level (positive rate) of Nestin after Wnt3a addition” value was 18.0% and 18.0 (±1.4) %; the “Expression level (positive rate) of Otx2 after Wnt3a addition” value was 61.5 (±0.6) %; the “Expression level (positive rate) of Pax6 after Wnt3a addition” value was 89.1 (±2.5) %; the “Expression level (positive rate) of Peripherin2 after Wnt3a addition” value was 13.9% and 13.9 (±2.4) %. Further, in data set [2], the “Expression level (positive rate) of Rax after Wnt3a addition” value was 98.2 (±0.9) %; the “Expression level (positive rate) of Recoverin after Wnt3a addition” value was 68.5% and 68.5 (±2.6) %; the “Expression level (positive rate) of Rhodopsin after Wnt3a addition” value is 52.9% and 52.9 (±3.4) %; the “Expression level (positive rate) of Sox2 after Wnt3a addition” value was 68.1 (±1.1) %. Moreover, the “Pax6-positive cells with increase in Wnt3a concentration” value in data set [3] is listed as “increased in a dose-dependent manner”.

B2: Dkk-1: recombinant Dkk-1 (R&D Systems), Wnt/Frizzled signaling pathway inhibitor (protein, UniProt O94907 32-266, looked up)
Dickkopf-related protein 1: TLNSVLNSNAIKNLPPPLGGAAGHPGSAVSAAPGILYPGGNKYQTIDNYQPYPCAEDEECGTDEYCASPTRGGDAGVQICLACRKRRKRCMRHAMCCPGNYCKNGICVSSDQNHFRGEIEETITESFGNDHSTLDGYSRRTTLSSKMYHTKGQEGSVCLRSSDCASGLCCARHFWSKICKPVLKEGQVCTKHRRKGSHGLEIFQRCYCGEGLSCRIQKDHHQASNSSRLHTCQRH
With B2, in data set [1] (setting [5]), the “Positive rate of Crx” value is listed as 54.3 (±3.1) %, the “Positive rate of Pax6” value is on record as 63.9 (±0.9) %, the “Positive rate of peripherin2” value is reported as 27.0 (±1.0) % and the “Positive rate of recoverin” value is reported as 55.1 (±0.6) %. Also, the “Positive rate of rhodopsin” value in data set [1] (setting [5]) was 49.1 (±2.0) %. Further, in data set [1] (setting [6]), the “Expression level of photoreceptor cell markers Crx, recoverin, rhodopsin and peripherin2 with increasing Dkk-1 concentration” value is “remarkably decreased”; the “Expression level of retinal progenitor cell marker Pax6 with increase in Dkk-1 concentration” value is “decreased”. Further, in data set [1] (setting [7]), the “Positive rate of Crx” value is on record as 7.4 (±1.1) %, the “Positive rate of Pax6” value is 51.8 (±1.0) %, the “Positive rate of peripherin2” value is given as 2.1 (±1.0) % and the “Positive rate of recoverin” value was 41.5 (±1.3) %. The “Positive rate of rhodopsin” value in data set [1] (setting [7]) is listed as 28.9 (±0.5) %. For the same molecule, in data set [1] (setting [8]), the “Positive rate of Crx” value is listed as 7.5 (±0.9) %, the “Positive rate of Pax6” value is 42.1 (±2.1) %, the “Positive rate of peripherin2” value is given as 0.1 (±0.1) % and the “Positive rate of recoverin” value is reported as 15.2 (±4.0) %. Besides, the “Positive rate of rhodopsin” value in data set [1] (setting [8]) is 11.9% and 11.9 (±3.0) %.
